According to patent publication US20220289814A1:

How the values were obtained:
Experiment in all cases: cell-based or functional assay
[1] = target: M663 ITAM-modified BCMA CAR (ISD: Linker 6-CD3ζ ITAM1-Linker 1-CD3ζ ITAM2-Linker 7-CD3ζ ITAM3-Linker 2) (UniProt P01732)
[2] = target: M666 ITAM-modified BCMA CAR (ISD: Linker 6-CD3ζ ITAM2-Linker 1-CD3ζ ITAM2-Linker 7-CD3ζ ITAM2-Linker 2) (UniProt P01732)
[3] = target: M665 ITAM-modified BCMA CAR (ISD: Linker 6-CD3ζ ITAM1-Linker 1-CD3ζ ITAM1-Linker 7-CD3ζ ITAM1-Linker 2) (UniProt P01732)
Sequence of M665 ITAM-modified BCMA CAR (ISD: Linker 6-CD3ζ ITAM1-Linker 1-CD3ζ ITAM1-Linker 7-CD3ζ ITAM1-Linker 2) (P01732 whole entry): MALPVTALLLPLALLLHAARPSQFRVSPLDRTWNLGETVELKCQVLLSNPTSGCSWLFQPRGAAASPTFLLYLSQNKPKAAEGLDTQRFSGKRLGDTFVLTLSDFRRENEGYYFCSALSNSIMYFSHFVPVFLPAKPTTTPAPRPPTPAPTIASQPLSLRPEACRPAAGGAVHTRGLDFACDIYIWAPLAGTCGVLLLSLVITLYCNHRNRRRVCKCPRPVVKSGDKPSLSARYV

Sequence of M666 ITAM-modified BCMA CAR (ISD: Linker 6-CD3ζ ITAM2-Linker 1-CD3ζ ITAM2-Linker 7-CD3ζ ITAM2-Linker 2) (P01732 whole entry): as above
Sequence of M663 ITAM-modified BCMA CAR (ISD: Linker 6-CD3ζ ITAM1-Linker 1-CD3ζ ITAM2-Linker 7-CD3ζ ITAM3-Linker 2) (P01732 whole entry): as above

wildtype SIV Nef
Relative ISD-modified CAR expression (CAR positive rate, FACS with FITC-labeled human BCMA, normalized to empty vector control), day 3 after Nef transduction [1]: 46.7%
Relative ISD-modified CAR expression (CAR positive rate, FACS with FITC-labeled human BCMA, normalized to empty vector control), day 3 after Nef transduction [2]: 57%
Relative ISD-modified CAR expression (CAR positive rate, FACS with FITC-labeled human BCMA, normalized to empty vector control), day 3 after Nef transduction [3]: 82.3%
